Results from PMC3210814.

Key:
[1] = biological target: bovine pancreatic trypsin (bovine); assay: enzyme inhibition assay (chromogenic substrate), inhibition against inhibitor concentration; trypsin 400 nM incubated with 0 to 400 nM rSdPI for 30 min; 100 mM Tris-HCl pH 8.0, 10 mM CaCl2, 25°C
[2] = biological target: bovine pancreatic trypsin (bovine); assay: enzyme inhibition assay (chromogenic substrate), Lineweaver-Burk plots and replot of the slopes; trypsin 400 nM pre-incubated with the inhibitor for 30 min; 100 mM Tris-HCl pH 8.0, 10 mM CaCl2, 25°C; substrate Nα-benzoyl-L-arginine 4-nitroanilide 0.1 to 0.8 mM; p-nitroaniline read at 405 nm for 5 min

Chain of bovine pancreatic trypsin (bovine) (P00760 24-246): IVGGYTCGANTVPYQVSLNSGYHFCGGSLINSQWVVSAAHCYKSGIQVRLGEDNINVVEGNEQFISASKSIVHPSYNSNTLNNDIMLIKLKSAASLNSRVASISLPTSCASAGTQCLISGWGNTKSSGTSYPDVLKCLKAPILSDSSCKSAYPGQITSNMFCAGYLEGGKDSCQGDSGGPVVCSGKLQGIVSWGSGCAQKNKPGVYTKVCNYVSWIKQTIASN

| Binder | stoichiometry N [1] | Ki [2] |
| --- | --- | --- |
| recombinant SdPI peptide (scorpion-derived protease inhibitor), wild type (peptide) KNKCQLPSDVGKGKASFTRYYYNEEGGKCETFIYGGVGGNSNNFLTKEDCCRECAQGSC | 1 | 160 nM |
| SdPI K12A mutant (peptide) KNKCQLPSDVGAGKASFTRYYYNEEGGKCETFIYGGVGGNSNNFLTKEDCCRECAQGSC |  | 290 nM |
| SdPI G13F mutant (peptide) KNKCQLPSDVGKFKASFTRYYYNEEGGKCETFIYGGVGGNSNNFLTKEDCCRECAQGSC |  | 260 nM |
| SdPI Ala15Phe mutant (peptide) KNKCQLPSDVGKGKFSFTRYYYNEEGGKCETFIYGGVGGNSNNFLTKEDCCRECAQGSC |  | 62000 nM |
